Values of other authors as cited in paper PMC6163503.

Legend:
[1] = biological target: JAK2 catalytic domain (Homo sapiens) (UniProt O60674); assay: SPR
[2] = biological target: Aminopeptidase N (Homo sapiens) (UniProt P15144)
UniProt P15144, sequence (P15144 2-967): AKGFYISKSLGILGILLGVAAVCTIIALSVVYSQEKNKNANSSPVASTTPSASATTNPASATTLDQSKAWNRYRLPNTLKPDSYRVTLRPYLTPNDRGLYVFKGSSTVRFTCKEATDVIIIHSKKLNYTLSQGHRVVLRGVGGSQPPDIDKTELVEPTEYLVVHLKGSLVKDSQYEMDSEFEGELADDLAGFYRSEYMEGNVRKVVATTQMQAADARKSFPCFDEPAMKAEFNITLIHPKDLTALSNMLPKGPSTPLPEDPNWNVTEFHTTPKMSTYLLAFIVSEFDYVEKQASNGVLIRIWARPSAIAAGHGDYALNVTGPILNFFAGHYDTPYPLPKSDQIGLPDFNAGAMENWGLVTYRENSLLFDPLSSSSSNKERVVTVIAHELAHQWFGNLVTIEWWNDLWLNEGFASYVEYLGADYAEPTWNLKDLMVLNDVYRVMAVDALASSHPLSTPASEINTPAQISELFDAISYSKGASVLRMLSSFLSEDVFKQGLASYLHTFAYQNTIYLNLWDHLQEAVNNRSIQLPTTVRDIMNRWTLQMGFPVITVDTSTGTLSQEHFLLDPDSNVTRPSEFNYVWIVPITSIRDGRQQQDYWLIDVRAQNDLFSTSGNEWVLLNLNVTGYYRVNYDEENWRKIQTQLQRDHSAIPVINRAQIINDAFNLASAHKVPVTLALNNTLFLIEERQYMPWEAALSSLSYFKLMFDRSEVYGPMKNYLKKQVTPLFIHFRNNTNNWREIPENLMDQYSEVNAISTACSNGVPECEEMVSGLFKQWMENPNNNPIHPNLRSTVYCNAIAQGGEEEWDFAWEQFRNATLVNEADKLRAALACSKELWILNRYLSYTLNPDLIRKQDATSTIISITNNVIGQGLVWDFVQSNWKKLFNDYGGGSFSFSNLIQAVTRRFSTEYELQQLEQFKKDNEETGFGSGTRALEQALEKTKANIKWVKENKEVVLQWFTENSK

UniProt O60674, sequence (O60674 849-1124): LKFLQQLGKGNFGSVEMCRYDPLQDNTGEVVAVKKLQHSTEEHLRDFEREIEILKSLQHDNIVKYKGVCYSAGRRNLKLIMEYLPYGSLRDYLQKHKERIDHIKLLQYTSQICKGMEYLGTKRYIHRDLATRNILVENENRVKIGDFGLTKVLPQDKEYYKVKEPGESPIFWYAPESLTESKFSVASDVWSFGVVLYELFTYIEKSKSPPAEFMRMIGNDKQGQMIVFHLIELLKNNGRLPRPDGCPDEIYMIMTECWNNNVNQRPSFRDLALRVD

| Substance | Kd [1] | Ki [2] |
| --- | --- | --- |
| SOCS3 ESS peptide ESS (from UniProt O14543) | > 1000 µM |  |
| SOCS3 KIR peptide KIR (from UniProt O14543) | 2.03 µM |  |
| SOCS3 KIRESS peptide KIRESS (from UniProt O14543) | 1.86 µM |  |
| cyc-LHSPW |  | 24.7 µM |
